Measurements: US20230045015A1, “Use of Cobra neurotoxin polypeptide molecule in the treatment of nephropathy proteinuria” (priority 2019, published 2023)

Assays:
[1] = test system: streptozotocin (STZ)-induced rat nephritis proteinuria; assay: Streptozotocin (STZ)-induced nephritis proteinuria in rats; format: in vivo; details: urine, ELISA, streptozotocin (STZ) 55 mg/kg, 20 ug/kg by gavage once a day for 8 weeks
[2] = test system: adriamycin induced rat nephritis proteinuria; assay: Adriamycin induced nephritis proteinuria in rats (unilateral nephrectomy + adriamycin); format: in vivo; details: urine, ELISA, adriamycin 3 + 2 mg/kg, 20 ug/kg by gavage once a day for 8 weeks
Description: 1. Experimental Animals and Groups
80 male SD rats weighing 160-180 g were randomly divided into 2 groups: 20 in the control group and 60 in the model group. 40 rats in model group, after success in modeling, were randomly divided into cobra neurotoxin polypeptide treatment group and model group.
Each group of the three, namely control group, treatment group and model group were randomly divided into two groups again, with 10 rats in each group to test cobra neurotoxin peptide SEQ ID No. 1 and SEQ ID No. 2, the remaining rats were out of the groups.
Glomerulosclerotic rats were established by unilateral nephrectomy combined with tail vein injection of adriamycin twice every 2 weeks. Model. […] The control group was injected into caudal vein on the 4th and 18th day respectively with normal saline 0.5 ml.
During the 8 weeks of observation, the treatment group was given cobra neurotoxin polypeptide·20 ug/kg by gavage once a day, continuously for 8 weeks; the model group and the control group were perfused with normal saline once a day for 8 weeks.
3. Collection and Detection of Urinary Protein
After the last treatment, the rats were placed in the metabolic cage to collect 10 ml of urine, centrifuged at 3500 r/min for 10 min, the supernatant was extracted into the cryopreservation tube, stored in the refrigerator at −80° C. for standby, and the urinary A1 microglobulin was detected by enzyme-linked immunosorbent assay, β2-microglobulin, microalbumin, transferrin and immunoglobulin G (IgG), operate according to the instructions of ELISA kit.
Anesthetized rats were injected intraperitoneally with 1.5% Pentobarbital Sodium (50 mg/kg). After the corneal reflex disappeared, the abdominal cavity was opened and the abdominal aorta was exposed. The abdominal aorta collected 10 ml of whole blood and placed in a centrifuge tube. After standing for 2 h, centrifuged at 3500 r/min for 10 min. The supernatant was extracted in a cryopreservation tube and stored in a refrigerator at −80° C. for standby. The serum creatinine, urea nitrogen, cholesterol and triglyceride were detected by a full-automatic biochemical analyzer.

[3] = biological target: T1, nicotinic acetylcholine receptor (nAChR) (Rattus norvegicus, UniProt P25108+P25110); assay: 125I-αBtx-nAChR binding inhibition (affinity test of snake venom protein peaks); details: rat skeletal muscle nAChR extract; αBTX = 100%, BSA = 0%
T1 construct: rat skeletal muscle nAChR extract; from tissue; host or cells: rat skeletal muscle (extract)
Description: The method was based on the affinity test between 12 protein peaks and nicotinic acetylcholine receptor (nAChR).
The Principle of Affinity Test
Because α-bungarotoxin has high affinity with the nicotinic acetylcholine receptor (nAChR), the cobra neurotoxin can compete with α-bungarotoxin for binding with nicotinic acetylcholine receptor, and only these α-bungarotoxin labeled with the radionuclide 125I and bound with the nicotinic acetylcholine receptor will be precipitated and be counted by the Gamma immunocount instrument whilst unbound α-bungarotoxin will be washed out. Therefore, 12 isolated proteins binding inhibition rate of α-bungarotoxin with nicotinic acetylcholine receptor (nAChR) could be used to measure the affinity between the isolated proteins and nicotinic acetylcholine receptor (nAChR), that's each isolated protein's bioactivity, which could be further determined by the γ counting value per second (Bq) measured by immune counter, and it becomes the index of proteins bioactivity.
The way of implementation include the method of binding inhibition rate of 125I radioactive labeling-α-bungarotoxin with nicotinic acetylcholine receptor (%) which reflects the activity of each protein.
The method for identifying cobra neurotoxin with high affinity with nicotinic acetylcholine receptor (nAChR) includes the following steps: […]

T1 sequence (P25108 21-457): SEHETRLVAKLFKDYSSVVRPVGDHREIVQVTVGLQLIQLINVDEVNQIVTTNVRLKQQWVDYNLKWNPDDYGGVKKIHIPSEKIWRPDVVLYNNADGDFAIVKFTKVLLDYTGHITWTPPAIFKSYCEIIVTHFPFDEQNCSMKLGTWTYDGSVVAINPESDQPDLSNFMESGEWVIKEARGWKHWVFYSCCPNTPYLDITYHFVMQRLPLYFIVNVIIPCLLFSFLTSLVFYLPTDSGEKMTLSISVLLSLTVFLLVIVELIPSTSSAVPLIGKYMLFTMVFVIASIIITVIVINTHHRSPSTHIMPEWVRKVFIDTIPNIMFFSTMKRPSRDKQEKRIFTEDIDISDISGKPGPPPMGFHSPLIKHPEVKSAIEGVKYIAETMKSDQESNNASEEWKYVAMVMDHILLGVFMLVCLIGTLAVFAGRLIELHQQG
T1 sequence (P25109 24-501 partner): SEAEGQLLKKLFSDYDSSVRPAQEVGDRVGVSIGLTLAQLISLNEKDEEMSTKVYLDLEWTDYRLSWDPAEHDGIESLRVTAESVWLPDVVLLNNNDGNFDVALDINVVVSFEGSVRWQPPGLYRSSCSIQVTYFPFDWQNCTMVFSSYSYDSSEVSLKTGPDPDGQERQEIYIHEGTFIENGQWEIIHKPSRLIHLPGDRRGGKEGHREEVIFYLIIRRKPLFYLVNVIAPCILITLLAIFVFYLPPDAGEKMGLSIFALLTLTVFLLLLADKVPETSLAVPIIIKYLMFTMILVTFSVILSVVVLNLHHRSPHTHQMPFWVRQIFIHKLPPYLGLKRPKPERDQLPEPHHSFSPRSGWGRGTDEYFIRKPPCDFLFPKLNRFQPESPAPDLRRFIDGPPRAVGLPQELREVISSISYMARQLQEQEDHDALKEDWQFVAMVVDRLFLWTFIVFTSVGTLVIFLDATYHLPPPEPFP
T1 sequence (P25110 22-517): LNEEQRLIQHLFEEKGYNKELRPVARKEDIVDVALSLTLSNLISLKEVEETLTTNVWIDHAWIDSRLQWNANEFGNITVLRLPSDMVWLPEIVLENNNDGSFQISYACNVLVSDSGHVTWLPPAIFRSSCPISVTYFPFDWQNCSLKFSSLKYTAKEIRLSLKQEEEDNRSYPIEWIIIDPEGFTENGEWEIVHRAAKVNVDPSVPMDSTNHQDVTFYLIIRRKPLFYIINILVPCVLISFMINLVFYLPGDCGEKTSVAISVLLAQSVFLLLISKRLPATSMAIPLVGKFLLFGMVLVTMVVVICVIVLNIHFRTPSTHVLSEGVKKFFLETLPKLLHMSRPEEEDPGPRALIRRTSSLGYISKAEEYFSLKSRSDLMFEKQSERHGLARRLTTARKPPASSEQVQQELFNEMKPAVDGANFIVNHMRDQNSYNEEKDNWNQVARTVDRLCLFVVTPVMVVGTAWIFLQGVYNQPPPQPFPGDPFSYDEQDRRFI

B1: SEQ ID No. 1 (protein, listed as Naja atra)
chain: LECHNQQSSQTPTTTGCSGGETNCYKKRWRDHRGYRTERGCGCPSVKNGIEINCCTTDRCNN
Which results are given for B1?
IgG ([1]; Table 3): 0.35 ± 0.11 µg/mL; TRF ([1]; Table 3): 0.17 ± 0.05 µg/mL; UALB ([1]; Table 3): 1.21 ± 0.14 µg/mL; a1-MG ([1]; Table 3): 1.02 ± 0.21 µg/mL; β2-MG ([1]; Table 3): 38.90 ± 11.82 ng/mL; IgG ([2]; Table 1): 0.34 ± 0.08 µg/mL; TRF ([2]; Table 1): 0.17 ± 0.08 µg/mL; UALB ([2]; Table 1): 0.89 ± 0.11 µg/mL; a1-MG ([2]; Table 1): 0.52 ± 0.8 µg/mL; β2-MG ([2]; Table 1): 29.29 ± 6.93 ng/mL; 125I-αBtx-nAChR binding inhibitory rate [3]: about 50%

B2: SEQ ID No. 2 (protein, listed as Naja atra)
chain: MKTLLLTLLVVTIVCLDLGYTLECHNQQSSQTPTTTGCSGGETNCYKKRWRDHRGYRTERGCGCPSVKNGIEINCCTTDRCNN
Which IgG ([1]; Table 4) does the source give for B2 here?
The IgG was 0.31 ± 0.09 µg/mL.

What about the TRF ([1]; Table 4) of the same molecule?
Its TRF is 0.18 ± 0.06 µg/mL.

What about the UALB ([1]; Table 4) of the same molecule?
The UALB was 0.89 ± 0.26 µg/mL.

And the a1-MG ([1]; Table 4)?
The a1-MG was 0.96 ± 0.19 µg/mL.

What about the IgG ([2]; Table 2) of the same molecule?
Its IgG is 0.31 ± 0.15 µg/mL.

What about the TRF ([2]; Table 2) of the same molecule?
Its TRF is 0.11 ± 0.032 µg/mL.

What about the UALB ([2]; Table 2) of the same molecule?
Its UALB is 0.82 ± 0.21 µg/mL.

And the a1-MG ([2]; Table 2)?
The a1-MG was 0.74 ± 0.14 µg/mL.
